Measured values from patent publication US20170008962A1 (Dana-Farber, published 2017).
One block for each binder: values may come before it.

Legend:
[1] = molecular target: T1, recombinant human angiopoietin-4 (human, UniProt Q9Y264 25-503); experiment: ELISA, angiopoietin coated at 4 µg/mL, antibody 20 µg/mL-0.16 µg/mL, anti-human IgG-Europium
T1 construct: also called Ang-4; Ang4
T1 sequence (looked up): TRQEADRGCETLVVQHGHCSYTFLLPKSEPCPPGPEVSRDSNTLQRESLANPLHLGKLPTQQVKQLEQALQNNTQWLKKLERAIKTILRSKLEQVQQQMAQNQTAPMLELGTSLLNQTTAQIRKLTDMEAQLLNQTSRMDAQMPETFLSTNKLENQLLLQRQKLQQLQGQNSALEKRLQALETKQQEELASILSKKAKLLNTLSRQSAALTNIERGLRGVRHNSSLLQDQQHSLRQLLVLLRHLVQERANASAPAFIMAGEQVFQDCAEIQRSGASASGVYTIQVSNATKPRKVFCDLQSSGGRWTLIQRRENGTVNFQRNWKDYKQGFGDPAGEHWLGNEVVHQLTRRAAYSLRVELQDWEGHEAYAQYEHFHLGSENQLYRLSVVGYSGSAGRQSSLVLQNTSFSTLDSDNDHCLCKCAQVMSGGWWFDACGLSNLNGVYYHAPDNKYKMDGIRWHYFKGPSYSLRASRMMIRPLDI

[2] = molecular target: T2, recombinant human angiopoietin-1 (human, UniProt Q15389 20-498); experiment: as above
T2 construct: also called Ang-1
T2 sequence (looked up): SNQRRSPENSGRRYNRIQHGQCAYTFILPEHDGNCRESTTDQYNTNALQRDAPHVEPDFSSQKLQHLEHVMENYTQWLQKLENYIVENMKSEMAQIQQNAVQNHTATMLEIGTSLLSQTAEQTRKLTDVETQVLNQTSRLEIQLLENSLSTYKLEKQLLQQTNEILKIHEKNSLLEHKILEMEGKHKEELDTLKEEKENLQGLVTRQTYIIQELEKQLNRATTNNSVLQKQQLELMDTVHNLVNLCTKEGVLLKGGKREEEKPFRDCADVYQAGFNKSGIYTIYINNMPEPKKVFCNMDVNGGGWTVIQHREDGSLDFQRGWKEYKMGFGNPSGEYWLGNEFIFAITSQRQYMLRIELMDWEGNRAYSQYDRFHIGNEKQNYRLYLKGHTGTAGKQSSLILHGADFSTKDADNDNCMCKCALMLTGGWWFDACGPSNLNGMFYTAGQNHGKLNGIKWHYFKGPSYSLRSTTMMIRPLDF

[3] = molecular target: T3, recombinant human angiopoietin-2 (human, UniProt O15123 19-496); experiment: as above
T3 construct: also called Ang-2
T3 sequence (looked up): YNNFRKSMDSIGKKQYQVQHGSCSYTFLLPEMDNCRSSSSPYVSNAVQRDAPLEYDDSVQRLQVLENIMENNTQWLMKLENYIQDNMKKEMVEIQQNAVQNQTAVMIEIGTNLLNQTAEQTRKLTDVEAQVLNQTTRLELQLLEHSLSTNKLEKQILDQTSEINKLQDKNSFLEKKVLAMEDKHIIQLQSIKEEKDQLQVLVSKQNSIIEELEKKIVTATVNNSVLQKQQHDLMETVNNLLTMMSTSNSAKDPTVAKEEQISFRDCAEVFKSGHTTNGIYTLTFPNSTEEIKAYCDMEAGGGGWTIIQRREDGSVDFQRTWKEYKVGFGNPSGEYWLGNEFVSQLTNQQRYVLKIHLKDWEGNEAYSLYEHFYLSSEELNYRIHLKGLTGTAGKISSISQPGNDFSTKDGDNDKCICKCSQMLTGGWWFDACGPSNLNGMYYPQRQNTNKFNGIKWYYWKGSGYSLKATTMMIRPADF

Ang-like-3 = molecular target: T4, Ang-like-3 (human, UniProt Q9Y5C1 17-460); experiment: ELISA, protein coated on plate, anti-human IgG-Europium
T4 sequence (looked up): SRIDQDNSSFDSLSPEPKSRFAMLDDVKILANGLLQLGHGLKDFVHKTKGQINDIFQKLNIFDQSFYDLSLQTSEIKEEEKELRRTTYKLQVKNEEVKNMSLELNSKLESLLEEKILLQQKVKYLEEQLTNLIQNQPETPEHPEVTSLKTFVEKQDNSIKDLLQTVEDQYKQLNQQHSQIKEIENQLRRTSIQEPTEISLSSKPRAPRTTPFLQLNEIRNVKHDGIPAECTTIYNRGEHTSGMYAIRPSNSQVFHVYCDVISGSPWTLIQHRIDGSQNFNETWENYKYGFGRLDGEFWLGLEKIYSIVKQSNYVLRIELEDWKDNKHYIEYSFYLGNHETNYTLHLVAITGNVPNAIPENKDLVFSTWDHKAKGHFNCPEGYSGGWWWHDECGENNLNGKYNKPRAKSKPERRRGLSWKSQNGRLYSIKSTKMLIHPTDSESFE

[4] = molecular target: T1, recombinant human angiopoietin-4; experiment: ELISA, protein coated at 4 µg/ml, antibody at 20, 4, 0.8 and 0.16 µg/ml, europium conjugated anti-human IgG
[5] = molecular target: T2, recombinant human angiopoietin-1; experiment: as above
[6] = molecular target: T3, recombinant human angiopoietin-2; experiment: as above
[7] = molecular target: T5, soluble, recombinant MICB with a single BirA biotinylation site (human, UniProt Q29980 23-309); experiment: cytometric bead assay, biotinylated protein on streptavidin beads, FITC anti-human IgG
T5 sequence (looked up): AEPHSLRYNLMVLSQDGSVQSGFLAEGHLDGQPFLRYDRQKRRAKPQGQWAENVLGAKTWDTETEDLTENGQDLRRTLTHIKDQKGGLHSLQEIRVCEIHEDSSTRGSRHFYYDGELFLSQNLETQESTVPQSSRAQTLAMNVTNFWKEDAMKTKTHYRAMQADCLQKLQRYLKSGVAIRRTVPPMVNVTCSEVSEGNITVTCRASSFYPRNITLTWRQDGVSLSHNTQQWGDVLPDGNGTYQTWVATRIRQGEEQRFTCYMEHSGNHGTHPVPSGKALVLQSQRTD

B1: antibody ID 5 (anti-angiopoietin-2 antibody) (antibody, V domains shown)
VH: EVQLVESGGGLIQPGGSLRLSCATSGFTFRTSSMSWVRRAPGKGLEWVSAIGAESHDTHYTDSAEGRFTISKDYSKNTVYLQMNGLRVDDTAIYYCAHHYYYGSRQKPKDWGDAFDMWGQGTMVSVSS
VL: DIQMTQSPSSVSASVGDRVTITCRASQDISTWLTWYQQRAGKAPNLLIYGASTLEDGVPSRFSGSGSGTDFTLTIDSLQPDDFATYYCQQSHSFPYTFGQGTQLGIS
binding result [1]: binds
binding result [2]: binds
binding result [3]: binds
binding result (Ang-like-3): no binding (tested: 20 µg/mL-0.16 µg/mL)

B2: anti-Ang2 Ab6 (antibody ID-10 of Table 1, anti-angiopoietin-2 antibody) (antibody, V domains shown)
VH: EVQLVESGGGLIQPGGSLRLSCAASGFLISSYFMSWVRQAPGKGPEWVSVIYSDGSTYYVDSVKGRFTISTDNSKNTLYLQMNSLRAEDTARYYCATRHLNYDGDHWGQGTLVTVSS
VL: DVVMTQSPLSLPVTLGQPASISCRSSQSLVHSDGNTYLNWFHQRPGQSPRRLIYKVSKRDSGVPDRFSGSGSGSDFTLKISRVEAEDVGIYYCMQGTHWPTFGQGTKVEIKR
notes: also called anti-Ang6 Ab2
binding result [4]: binds
binding result [5]: binds
binding result [6]: binds

B3: CM33322 Ab11 (anti-MICA antibody ID-8 of Table 1) (antibody, V domains shown)
VH: QVQLQESGPGLVKPSENLSLTCTVSDASMSDYHWSWIRQAAGKGLEWIGRMYSTGSPYYKPSLKGRVTMSIDTSKNQFSLKLASVTAADTAIYYCASGQHIGGWVPPDFWGQGTLVTVSS
VL: DIVMTQTPLSSPVTLGQPASISCRSSEGLVYSDGDTYLSWFHQRPGQPPRLLIYKISNRFSGVPDRFSGSGAGTDFTLKISRVEAEDVGVYYCMQATHFPWTFGQGTKVEVKR
binding result [7]: binds

B4: antibody ID 4 (anti-angiopoietin-2 antibody) (antibody, V domains shown)
VH: EVQLVESGGGLVQPGGSVRLSCAASGFILSNFAMSWVRQAPGKGLDWVSGNFGGRENTYYADSVKGRFTISRDSSKSTLYLQMNNLRAEDTAVYYCARGDYHGSGAHFDYWGQGILVTVSS
VL: DIVMTQSPLSSPVILGQPASISCRSSQSLLHSDGNTYLSWLHQRPGQPPRLLIYQISNRFSGVPDRFSGSGTGTDFTLKISRVEAEDAGIYYCMQGTEFPRTFGQGTKVEIK
binding result [1]: binds
binding result [2]: binds
binding result [3]: binds
binding result (Ang-like-3): no binding (tested: 20 µg/mL-0.16 µg/mL)

B5: antibody ID 3 (anti-angiopoietin-2 antibody) (antibody, V domains shown)
VH: EVQLVESGGGLVQPGGSLRLSCAASGFTFSNNWMHWVRQAPGKGLEWISEIRSDGNFTRYADSMKGRFTISRDNAKSTLYLQMNSLRVEDTGLYYCARDYPYSIDYWGQGTLVTVSS
VL: DIVMTQTPLSSPVTLGQPASISCTSSQSLVHSNGNTYLSWLQQRPGQPPRLLIYEISKRVSGVPDRFSGSGAGTDFTLKISRVEAEDVGVYYCMQGKQLRTFGQGTKLEIK
binding result [1]: binds
binding result [2]: binds
binding result [3]: binds
binding result (Ang-like-3): no binding (tested: 20 µg/mL-0.16 µg/mL)

Next, values leading:

binding result [1]: binds
binding result [2]: binds
binding result [3]: binds
binding result (Ang-like-3): no binding (tested: 20 µg/mL-0.16 µg/mL)
B6: antibody ID 2 (anti-angiopoietin-2 antibody) (antibody, V domains shown)
VH: EVQLVESGGGLVQPGGSLRLSCAASGFTFSSYAMSWVRQAPGKGLEWVSGIYWSGGSTYYADSVKGRFTISRDISKNTLYLQMNSLRADDTAVYYCARGDYYGSGAHFDYWGQGTLVTVSS
VL: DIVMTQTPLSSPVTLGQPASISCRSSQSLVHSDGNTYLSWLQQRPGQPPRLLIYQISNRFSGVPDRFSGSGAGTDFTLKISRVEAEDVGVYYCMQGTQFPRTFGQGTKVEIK

binding result [7]: binds
B7: CM24002 Ab4 (anti-MICA antibody ID-7 of Table 1) (antibody, V domains shown)
VH: QVQLQESGPGLVKPSGTLSLTCAVSGASITNGAWWSWVRQPPGKGLEWIGEIYLNGNTNSNPSLKSRVIISVDKSKNHFSLTLNSVTAADTAVYYCAKNAAYNLEFWGQGALVTVSS
VL: EIVLTQSPGTLSLSPGERATLSCRASQTVSSPYVAWYQQKRGQAPRLLIYGASTRATGIPDRFSGSGSGTDFTLTISRLEPEDFAVYYCQQYDRSYYYTFGQGTKLEIK

binding result [7]: binds
B8: CM24002 Ab2 (anti-MICA antibody ID-6 of Table 1) (antibody, V domains shown)
VH: QVQLQESGPGLVEPSGTLSLTCTVSGGSISRSNWWSWVRQPPGEGLEWIGEIHHIGRSSYNPSLKSRVTMSVDKSQNQFSLRLTSVTAADTAVYYCAKNGYYAMDVWGQGTTVTVSS
VL: EIVLTQSPGTLSLSPGERATLSCRASQSVSSDFLAWYQQKPGQAPRLLIYATSFRATGISDRFSGSGSGTDFSLTINRLEPEDFAVYYCQHYRSSPPWYTFAQGTKLDMRRTVAAPSV
